Data on ten molecules can be found in US20030022283A1 (published 2003).

As usually defined, the Ki is a dissociation constant, usually derived from enzyme kinetics or from competition with a known ligand. Lower therefore signals higher affinity. For orientation: IC50 means the concentration that gives 50% inhibition. Low values mean inhibition by little substance, high ones a need for much substance.

Test [1] addresses T1, Rat NPY Y5 receptor, Y861 clone (rat, UniProt Q63634 1-445).
T1 sequence: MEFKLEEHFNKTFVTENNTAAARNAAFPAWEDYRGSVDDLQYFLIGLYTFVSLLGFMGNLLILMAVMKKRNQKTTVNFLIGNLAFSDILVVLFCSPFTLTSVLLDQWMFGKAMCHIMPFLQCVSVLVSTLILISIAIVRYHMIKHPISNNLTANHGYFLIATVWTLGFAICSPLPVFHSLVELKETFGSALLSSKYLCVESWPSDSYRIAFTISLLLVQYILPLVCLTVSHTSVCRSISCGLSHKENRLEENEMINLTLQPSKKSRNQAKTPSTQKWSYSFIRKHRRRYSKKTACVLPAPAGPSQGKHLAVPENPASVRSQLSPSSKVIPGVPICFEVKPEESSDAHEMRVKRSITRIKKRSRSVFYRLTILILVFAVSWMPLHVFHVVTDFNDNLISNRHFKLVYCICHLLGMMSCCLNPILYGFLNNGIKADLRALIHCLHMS
The test can be described thus: competition with [125I]PYY, membranes of transiently transfected COS-7 cells, one of the two experiments averaged.

Test [2] has as its target T1, Rat NPY Y5 receptor, Y861 clone. The test can be described thus: competition with [125I]PYY, membranes of transiently transfected COS-7 cells, average of two experiments.
The target is the same in test [3]. The test can be described thus: competition with [125I]PYY, rat Y5 Y861 clone.
In test [4] the target is Y5 receptor (clone not specified), transiently expressed in COS-7 cells. The test can be described thus: saturation binding, membranes of transiently transfected cells, nonlinear regression.
Test [5] has as its target T1, Rat NPY Y5 receptor, Y861 clone. The test can be described thus: competition with [125I]PYY, membranes of transiently transfected COS-7 cells.
In test [6] the target is Human NPY Y5 receptor (human) (UniProt Q15761). The test can be described thus: competition with [125I]PYY, membranes of transiently transfected cells, one of the two experiments averaged.
For test [7], the target named is T2, Rat Y4/PP1 receptor (clone) (rat, UniProt Q63447 1-375).
T2 construct: also called Rat Y4/PP1 (clone)
The test can be described thus: competition with rat [125I]PP, rat Y4/PP1 clone.

Test [8] addresses T1, Rat NPY Y5 receptor, Y861 clone. The test can be described thus: competition with [125I]PYY, membranes of stably transfected 293S cells.
The target in test [9] is Rat NPY Y5 receptor, Y555 clone (rat) (UniProt Q63634). The test can be described thus: competition with [125I]PYY, membranes of transiently transfected COS-7 cells, one of the two experiments averaged.
The target of test [10] is Rat NPY Y5 receptor, 6B clone (Y217.24.13.6B) (rat) (UniProt Q63634). The description is as above.
Test [11] has as its target Rat NPY Y5 receptor, Y555 clone (rat) (UniProt Q63634). The test can be described thus: competition with [125I]PYY, membranes of transiently transfected COS-7 cells, average of two experiments.
For test [12], the target named is T1, Rat NPY Y5 receptor, Y861 clone. The test can be described thus: cell-based or functional assay.
For test [13], the target named is T3, Human NPY Y5 receptor (human, UniProt Q15761 1-445).
T3 sequence: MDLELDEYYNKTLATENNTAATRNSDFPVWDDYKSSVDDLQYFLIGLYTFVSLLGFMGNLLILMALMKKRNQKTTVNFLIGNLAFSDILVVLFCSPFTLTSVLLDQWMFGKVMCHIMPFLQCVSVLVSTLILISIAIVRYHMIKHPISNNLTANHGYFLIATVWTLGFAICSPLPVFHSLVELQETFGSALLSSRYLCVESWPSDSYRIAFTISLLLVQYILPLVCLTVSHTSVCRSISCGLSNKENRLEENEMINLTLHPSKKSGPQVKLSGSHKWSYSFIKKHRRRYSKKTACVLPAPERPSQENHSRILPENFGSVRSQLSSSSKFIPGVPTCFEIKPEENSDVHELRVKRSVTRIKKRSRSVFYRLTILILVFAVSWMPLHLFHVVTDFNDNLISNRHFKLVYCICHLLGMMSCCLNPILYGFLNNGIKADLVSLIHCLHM
The test can be described thus: cell-based or functional assay.

Test [14] concerns the target T3, Human NPY Y5 receptor. The test can be described thus: competition with [125I]PYY, membranes of transiently transfected cells, average of two experiments.
Test [15] has as its target T4, Rat NPY Y5 receptor, 6B clone (Y217.24.13.6B) (rat, UniProt Q63634 1-445).
T4 construct: 445 amino acid protein; assayed as membranes of transiently transfected COS-7 cells; Has proline where Y555/Y589/Y861 have leucine in the first transmembrane domain; also called RAT 6B Clone; Y5 clone
T4 sequence: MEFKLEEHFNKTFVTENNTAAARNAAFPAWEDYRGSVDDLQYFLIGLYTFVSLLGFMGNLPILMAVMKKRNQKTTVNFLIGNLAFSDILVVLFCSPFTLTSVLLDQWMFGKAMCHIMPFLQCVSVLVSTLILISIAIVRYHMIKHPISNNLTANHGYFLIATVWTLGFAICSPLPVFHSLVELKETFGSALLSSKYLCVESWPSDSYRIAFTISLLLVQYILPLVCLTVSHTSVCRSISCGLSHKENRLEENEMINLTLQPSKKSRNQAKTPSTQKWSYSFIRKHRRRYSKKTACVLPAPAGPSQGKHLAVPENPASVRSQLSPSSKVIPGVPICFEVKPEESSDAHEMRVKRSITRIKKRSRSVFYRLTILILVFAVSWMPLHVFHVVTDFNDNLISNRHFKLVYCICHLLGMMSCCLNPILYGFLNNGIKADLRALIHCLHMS
The test can be described thus: competition with [125I]PYY, membranes of transiently transfected COS-7 cells.
Description: The binding assays were performed on GF/C Millipore (Bedford, Mass.) 96-well plates pretreated with 0.02% polyethylenimine (PEI) for at least 2 hours prior to use. The PEI was aspirated from the plates on a vacuum manifold immediately before the samples were added to the wells. All peptides, tissue and radioligand were diluted with binding buffer (25 mM Tris, 120 mM NaCl, 5 mM KCl, 1.2 mM KH₂PO₄, 2.5 mM CaCl₂, 1.2 mM MgSO₄, 0.1% BSA and 0.5 mg/ml bacitracin, pH 7.4).
Each point is the average value of triplicate determinations from a representative experiment. […] Kᵢ values were calculated from the IC₅₀ values using the Cheng-Prusoff correction, such that Kᵢ=IC₅₀/(1±(L/Kd)), where L is the radioligand concentration and Kd is the dissociation constant.

The target in test [16] is T3, Human NPY Y5 receptor. The test can be described thus: competition with [125I]PYY, membranes of transiently transfected cells, one of the two experiments averaged.
The target of test [17] is T3, Human NPY Y5 receptor. The test can be described thus: competition with [125I]PYY, membranes of stably transfected 293 cells.

Where “and” joins values, the source holds several entries; their conditions need not be identical. Equal values may be shown once. Where only a bound is given, the exact number is not on record here.

T2 sequence (Q63447 whole entry): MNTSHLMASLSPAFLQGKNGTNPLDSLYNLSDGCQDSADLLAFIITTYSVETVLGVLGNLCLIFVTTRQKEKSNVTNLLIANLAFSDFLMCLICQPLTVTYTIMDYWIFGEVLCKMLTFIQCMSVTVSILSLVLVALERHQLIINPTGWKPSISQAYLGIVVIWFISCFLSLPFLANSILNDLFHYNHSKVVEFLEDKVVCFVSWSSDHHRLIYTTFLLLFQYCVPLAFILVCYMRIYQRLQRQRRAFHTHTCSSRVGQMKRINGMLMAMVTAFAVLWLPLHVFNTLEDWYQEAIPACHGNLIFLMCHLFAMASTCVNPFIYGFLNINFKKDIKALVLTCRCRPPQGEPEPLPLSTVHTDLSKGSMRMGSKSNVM
Sequence of (13-36)PYY (species not stated, Table 2) (peptide) (P10082 41-64): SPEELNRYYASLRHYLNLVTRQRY

Regarding “porcine (3-36)NPY (from UniProt P01304 12-45) (peptide)”, the results for the Ki in test [1] and in test [2] were 2.3 nM and 2 nM, respectively.
Consider (32D-Trp)NPY (peptide), for which the IC50 in [3] turned out to be 7 nM.
In [4], “[125I]PYY (radioiodinated peptide YY) (ligand)” yielded a receptor density (Bmax) (fmol/mg protein) of 140.
Consider “rat (13-36)NPY (as printed in Table 1) (from UniProt P07808 42-65) (peptide)”, for which the Ki is 86 nM in [5]; 89 nM and 65 nM in test [6].
In [7], “rat/human (Leu31Pro34)(3-36)NPY (from UniProt P01303 31-64) (peptide)” had a 50% inhibitory concentration (IC50) of 20 nM. In other words, the double-digit nanomolar range.
Molecule “porcine (18-36)NPY (from UniProt P01304 27-45) (peptide)” gave a Ki in [5] of 206 nM.
“(13-36)PYY (species not stated, Table 2) (peptide)” showed a Ki in test [8] of 29 nM.
“porcine (13-36)NPY (from UniProt P01304 22-45) (peptide)”: the Ki is 25 nM and 19 nM in test [1]; 7.9 nM and 7.5 nM in [10]. In addition, the IC50 in test [9] was 38 nM and 41 nM; in [11] it was 40 nM.
On to APLEPVYPGDNATPEQMAQYAADLRRYINMLTRPRY (ligand, UniProt P01298 30-65, looked up, mature; also called hPP) [human pancreatic polypeptide], for which the IC50 in test [7] is 0.065 nM; in [3] it was 4.9 nM. In test [12], the “EC50, forskolin-stimulated adenylate cyclase (cAMP radioimmunoassay), stably transfected 293S cells” value was determined as 1 nM. Besides, the Ki in test [5] was 4 nM; in [8], 2.5 nM.
For APLEPMYPGDYATHEQRAQYETQLRRYINTLTRPRY (ligand, UniProt P06303 30-65, looked up, mature; also called rPP; rat PP) [rat pancreatic polypeptide], the results for the half-maximal inhibitory concentration (IC50) in [7] and in test [3] were 0.071 nM and 325 nM, respectively. The “EC50, forskolin-stimulated adenylate cyclase (cAMP radioimmunoassay), stably transfected 293 cells” value in test [13] was above 1000 nM. The “EC50, forskolin-stimulated adenylate cyclase (cAMP radioimmunoassay), stably transfected 293S cells” value in test [12] was 112 nM. Besides, the Ki in [14] is 436 nM; in [5], 296 nM; in test [15], 62 nM; in test [16], 290 nM and 582 nM; in test [17] it was 286 nM; in test [8], 203 nM.
